Assay results: the Human Domainome abundance scans (Beltran et al. 2025)

B1: DnaJ homolog subfamily C member 2, residues 451 to 503; numbered along this chain, Q99543 (parent)
chain: SKNWSEDDLQLLIKAVNLFPAGTNSRWEVIANYMNIHSSSGVKRTAKDVIGKA

Variants of: B1
Test: abundance fitness (aPCA) (normalised: wild type 0, dead -1); higher = more abundant; growth selection in yeast, the domain comes from the species named
Conditions: Homo sapiens

Abundance fitness: each site, then its substitutions
S38: L -0.86 | Y -1.03 | I -1.04 | Q -0.176 | R -0.435 | W -1 | C -0.169 | E -0.609 | H -0.525 | A -0.224 | T -0.116 | D -0.61 | K -0.517 | P -0.936 | F -0.822 | N -0.162 | V -0.755 | G -0.069
I36: C 0.043 | W -0.134 | G -0.009 | P -0.994 | L 0.049 | H -0.135 | Q 0.079 | K 0.208 | F -0.116 | S 0.014 | T -0.007 | N 0.049 | Y -0.141
T45: I -0.33
I30: Q -1 | G -0.905 | S -0.947 | V -0.019 | W -0.839 | D -0.729 | T -0.987 | K -0.873 | E -0.955 | Y -0.923 | N -0.999 | R -0.951 | F -0.635 | A -0.651 | M -0.535 | P -0.94 | L -0.789
G41: I -0.119 | F 0.064 | D -0.066 | L -0.186 | M -0.035 | P -0.114 | C -0.103 | Y -0.25 | T -0.072 | W -0.645 | K 0.001 | H -0.129 | N -0.143 | R -0.061 | E -0.151 | A 0.089
A46: W -0.348 | S -0.099 | Y -0.305 | H -0.309 | M -0.22 | Q -0.089 | I -0.167 | N -0.567 | L -0.355 | R -0.222 | K -0.087 | G -0.246 | F -0.366 | C -0.094 | E -0.067 | P -0.083 | T -0.114
S40: N -0.16 | V -0.484 | E -0.336 | Y -0.504 | T -0.166 | F -0.559 | L -0.306 | H -0.125 | W -0.646 | D -0.282 | Q -0.158 | C -0.217 | K -0.302 | M -0.536 | R -0.286 | A 0.009 | P -0.52
N24: H 0.118 | V -0.068 | S -0.043 | M -0.056 | R -0.045 | W -0.279 | L -0.116 | I -0.09 | K -0.013 | P -0.066 | T -0.024 | Q -0.112 | G -0.276
H37: Y -0.044
V42: I 0.093 | F -0.145 | A -0.685
E28: A -0.278 | R -0.138 | N -0.312 | D -0.089 | G -0.397 | Y -0.866 | S -0.013 | C -0.49 | W -0.592 | F -0.376 | T -0.351 | M -0.44 | K -0.237 | Q 0.009 | V -0.259 | P -0.627
Y33: T -0.915 | I -1.02 | N -0.968 | S -0.87 | V -0.847 | W -0.073 | R -0.865 | K -0.568 | L -0.914 | G -0.981 | P -0.938 | H -0.414 | E -0.805 | C -0.996 | M -0.882 | Q -0.746 | D -0.977 | A -0.752
N35: H -0.519 | Y -0.775 | G -0.646 | Q -0.558 | V -0.815 | R -0.59 | D -0.685 | T -0.345 | S -0.186 | K -0.871 | L -1.07 | W -0.897 | I -0.86 | M -0.56 | C -0.587 | P -1.08
S39: Y -0.339 | F -0.362 | G 0.016 | H 0.05 | K -0.086 | R 0 | Q -0.102 | I -0.197 | L -0.095 | M -0.122 | D 0.03 | E 0.076 | P 0.001 | W -0.183 | N -0.076 | A 0.122 | V -0.158
K43: N -0.025 | T -0.006 | H -0.173 | E -0.096 | A -0.133 | I -0.147 | R -0.045 | W -0.259 | S -0.153 | D -0.015 | G -0.302 | M -0.146 | P -0.209 | C -0.06 | L -0.067 | F -0.179
R26: H -0.831 | G -0.74 | T -0.52 | A -0.557 | S -0.934
N32: F -0.542 | E 0.061 | Y -0.507 | D -0.016 | Q -0.103 | L -0.315 | R -0.095 | M -0.302 | K -0.083 | H 0.076 | T -0.13 | I -0.66 | P -0.93 | W -0.38 | G -0.2 | A -0.04 | C -0.524
S25: I -0.788 | N -0.384 | T -0.144 | Y -0.281 | L -0.239 | Q -0.235 | W -0.219 | D 0.062 | E -0.159 | K -0.003 | F -0.272 | C -0.04 | G -0.077 | A -0.094
M34: C -0.136 | L -0.056 | D -0.833 | R -0.963 | F -0.317 | V 0.003 | E -0.816 | H -0.683 | W -0.666 | G -0.977 | P -0.553 | Q -0.696 | Y -0.722 | I -0.011 | A -0.895
A31: Y -1.08 | T 0.051 | F -1.01 | S -0.179 | H -0.919 | K -0.357 | P -0.837 | Q -0.549 | L -0.463 | I -0.82 | R -0.384 | E -0.859 | D -0.831 | M -0.66 | N -0.768 | V -0.397 | G -0.607 | W -0.857
K47: G -0.039 | E 0 | R -0.056 | V -0.095 | I -0.017 | P -0.133 | M -0.111 | C -0.206 | F -0.22 | W -0.266 | Y -0.212 | T 0.08 | L -0.097 | A 0.054 | N -0.065 | S 0.033 | Q 0.057
W27: H -0.537 | R -0.791 | Q -0.726 | L -0.597 | I -0.286 | E -0.168 | Y -0.299 | V -0.444 | C -0.261 | N -0.581 | G -0.138 | F -0.207 | A -0.114 | D -0.419 | M -0.323 | P -0.247 | T -0.475
V29: C -0.071 | R 0.043 | T 0.008 | F -0.32 | G -0.026 | L -0.051 | Y -0.166 | K -0.113 | I -0.127 | P -0.696 | H -0.096 | E -0.103 | D 0.16 | N -0.166 | S 0.01 | M 0.078 | W -0.082 | A 0.082 | Q 0.104
D48: Q -0.105 | P -1.01 | G -0.554 | M -0.396 | C -0.393 | K -0.973 | F -1.06 | N -0.623 | L -0.838 | R -0.708 | A -0.262 | H -0.539 | E 0.042
